We go through 39 molecules from US20210230599, “STEM-LOOP COMPOSITIONS AND METHODS FOR INHIBITING INTERLEUKIN-8” (VITRISA THERAPEUTICS, INC., published 2021).

What all share (assay): competition; competition TR-FRET
Holding throughout (details): tags: C-terminal 6xHis (Sino Biological)

The target of data set [1] is T1, Interleukin-8 (IL8, CXCL8), C-terminal His-tagged (Homo sapiens, UniProt P10145 SEQ:1-72). Here is the method: (§1) Activity of each of these variants were tested using a time resolved competition TR-FRET assay in which the labeled parent Aptamer 3 was competed with increasing concentrations of unlabeled variants for binding to IL8 (FIG. 14). Briefly, 2-fold dilutions of thermally equilibrated aptamers were made in TR-FRET Buffer (50 mM MOPS, pH 7.4, 125 mM NaCl, 5 mM KCl, 50 μM CHAPS, 0.1 mg/mL BSA, 1 mM CaCl₂, and 1 mM MgCl₂). 5 μL of aptamer or control solution was added to 5 μl mix of 10 nM C-terminal His-tagged-IL8, 60 nM ALEXA FLUOR® 647-labeled Aptamer, and 5 nM anti-His-Eu (Perkin Elmer) in a black wall low volume 384 well plate (Greiner). For control, 5 μl of 1000-fold excess of unlabeled parent aptamer or 5 μl TR-FRET buffer alone was added to the mix of ALEXA FLUOR® 647-labeled aptamer, His-IL8, and anti-His-Eu. The plate was covered with a plate seal and subsequently incubated in the dark for 1 hour at room temperature. The plate was read on a Biotek CYTATION™ 5 plate reader. Samples were excited at 330 nm and fluorescent values were collected at 665 nm. Data analysis was performed by subtracting the background value and plotting as percent inhibition, normalized to baseline in the absence of competitor. The values were fit by [Inhibitor] vs. response—Variable slope (four parameters) using GraphPad Prism Version 7.0 and then normalized to aptamer control to obtain an IC₅₀ relative to parent aptamer. Data is presented as log values of relative IC₅₀.
To better understand the sequence requirements and confirm the stem structures of members of the Aptamer 8 family as determined from sequence covariation analysis from both the primary and secondary (degenerate) selections, a series of variants which included mutations and deletions to the predicted stems (Tables 45 and 46) were synthesized and screened. Activity of each of these variants was tested using a competition TR-FRET assay in which the labeled parent Aptamer 8 was competed with increasing concentration of unlabeled variants for binding to IL8 as described in Example 11.

Data set [2] has as its target T1, Interleukin-8 (IL8, CXCL8), C-terminal …. How it is done:
as §1, with “To better understand the sequence requirements and to confirm the stem structures of members of the Aptamer 3 family as determined from sequence covariation analysis from both the primary and secondary (degenerate) selections, a series of variants which included mutations and deletions to the predicted stems were synthesized and screened (Table 24). Activity” for “Activity”
The source holds these as a separate data set.

The target is the same in data set [3]. Here is the method:
as §1, with “To better understand the sequence requirements and to confirm the stem structures of members of the Aptamer 3 family as determined from sequence covariation analysis from both the primary and secondary (degenerate) selections, a series of variants which included mutations and deletions to the predicted stems were synthesized and screened (Table 24). Activity” for “Activity”
To test the effects of variation in this region on aptamer function, aptamer clones from Round 5 of the degenerate selection which had mutations in loop L3 were synthesized (Table 26). All of the compounds were tested in the competition TR-FRET assay.
This is another data set of the same source.

Residue numbers refer to the chain shown, from its start.

B1: Aptamer 119 (ssRNA)
RNA: CGGUGGGAAACCUGAGAUGGGUUGCCG
modifications: 2'-F G, 2'-OMe A/C/U, 5' C6NH2, 3' idT
In data set [1], B1 registered a binding signal above 10 fold worse than Aptamer 8.

B2: Aptamer 215 (ssRNA)
RNA: CGGUGGGAAAUGUGAGAUGGGAUGCCG
modifications: 2'-F G, 2'-OMe A/C/U, 5' C6NH2, 3' idT
In turn, B2 registered a binding signal in data set [1] above 10 fold worse than Aptamer 8.

B3: Aptamer 218 (ssRNA)
RNA: CGAUGGGAAAUGUGAGAUGGGUUGUCG
modifications: 2'-F G, 2'-OMe A/C/U, 5' C6NH2, 3' idT
As to B3, the binding result in data set [1] is “binds”.

B4: Aptamer 115 (ssRNA)
RNA: CGGUGGGAAAUGCGAGAUGGGUUGCCG
modifications: 2'-F G, 2'-OMe A/C/U, 5' C6NH2, 3' idT
As for B4, the binding signal in data set [1] is above 10 fold worse than Aptamer 8.

B5: Aptamer 32 (ssRNA)
RNA: CGGUGGGAAAUGUGAGAUGGGUUGCCG
modifications: 2'-F G, 2'-OMe A/C/U, 5' C6NH2, 3' idT
As for B5, the binding result in data set [1] (stem-loop) is listed as “binds”.

B6: Aptamer 118 (ssRNA)
RNA: CGGUGGGACACGCGAGAUGGGUGGCCG
modifications: 2'-F G, 2'-OMe A/C/U, 5' C6NH2, 3' idT
Regarding B6, the binding signal in data set [1] is above 10 fold worse than Aptamer 8.

B7: Aptamer 113 (ssRNA)
RNA: CGGUGGGAAAUAUGAGAUGGGUUGCCG
modifications: 2'-F G, 2'-OMe A/C/U, 5' C6NH2, 3' idT
Molecule B7 returned a binding signal in data set [1] above 10 fold worse than Aptamer 8.

B8: Aptamer 117 (ssRNA)
RNA: CGGUGGGAAACGCGAGAUGGGUUGCCG
modifications: 2'-F G, 2'-OMe A/C/U, 5' C6NH2, 3' idT
Molecule B8 came in with a binding signal in data set [1] above 10 fold worse than Aptamer 8.

B9: Aptamer 216 (ssRNA)
RNA: CUGUGGGAAAUGUGAGAUGGGUUGCAG
modifications: 2'-F G, 2'-OMe A/C/U, 5' C6NH2, 3' idT
Take B9: the binding result in data set [1] was “binds”.

B10: Aptamer 120 (ssRNA)
RNA: CGGUGGGAAACCCGAGAUGGGUUGCCG
modifications: 2'-F G, 2'-OMe A/C/U, 5' C6NH2, 3' idT
As to B10, the binding signal in data set [1] was above 10 fold worse than Aptamer 8.

B11: Aptamer 183 (ssRNA)
RNA: UCAUGACGGUAGAUUACGGGUAGAGUGACCGCAUGU
modifications: 2'-F G, 2'-OMe A/C/U, 5' C6NH2, 3' idT
In the case of B11, in data set [2], the binding result is “binds”.

B12: Aptamer 97 (ssRNA)
RNA: B11 RNA with C2G, U21G, A24U, G35C
modifications: 2'-F G, 2'-OMe A/C/U, 5' C6NH2, 3' idT
With B12, in data set [3], the binding result was “binds”.

B13: Aptamer 108 (ssRNA)
RNA: B11 RNA with C2G, U15A, G35C
modifications: 2'-F G, 2'-OMe A/C/U, 5' C6NH2, 3' idT
On to B13, for which, in data set [3], the binding result was “binds”.

B14: Aptamer 96 (ssRNA)
RNA: B11 RNA with C2G, U21C, A24U, G35C
modifications: 2'-F G, 2'-OMe A/C/U, 5' C6NH2, 3' idT
With B14, the binding result in data set [3] is “binds”.

B15: Aptamer 102 (ssRNA)
RNA: B11 RNA
modifications: 2'-F G, 2'-OMe A/C/U, 5' C6NH2, 3' idT
As for B15, in data set [3], the binding result is “binds”.

B16: Aptamer 104 (ssRNA)
RNA: B11 RNA with C2G, C17A, A24U, G35C
modifications: 2'-F G, 2'-OMe A/C/U, 5' C6NH2, 3' idT
Take B16: the binding result in data set [3] is “binds”.

B17: Aptamer 111 (ssRNA)
RNA: B11 RNA with C2G, C17U, A24U, G35C
modifications: 2'-F G, 2'-OMe A/C/U, 5' C6NH2, 3' idT
With B17, in data set [3], the binding result is “binds”.

B18: Aptamer 209 (ssRNA)
RNA: B11 RNA with C2G, A3C, U34G, G35C
modifications: 2'-F G, 2'-OMe A/C/U, 5' C6NH2, 3' idT
For the molecule B18, the binding result in data set [2] is on record as “binds”.

B19: Aptamer 98 (ssRNA)
RNA: B11 RNA with C2G, U21A, A24U, G35C
modifications: 2'-F G, 2'-OMe A/C/U, 5' C6NH2, 3' idT
On to B19, for which the binding result in data set [3] is “binds”.

B20: Aptamer 109 (ssRNA)
RNA: B11 RNA with C2G, U15A, A24U, G35C
modifications: 2'-F G, 2'-OMe A/C/U, 5' C6NH2, 3' idT
With B20, the binding result in data set [3] is “binds”.

B21: Aptamer 101 (ssRNA)
RNA: B11 RNA with A16U, A24U
modifications: 2'-F G, 2'-OMe A/C/U, 5' C6NH2, 3' idT
As for B21, in data set [3], the binding result is reported as “binds”.

B22: Aptamer 103 (ssRNA)
RNA: B11 RNA with C2G, U21A, G35C
modifications: 2'-F G, 2'-OMe A/C/U, 5' C6NH2, 3' idT
For B22, in data set [3], the binding result was “binds”.

B23: Aptamer 105 (ssRNA)
RNA: B11 RNA with C2G, A22U, A24U, G35C
modifications: 2'-F G, 2'-OMe A/C/U, 5' C6NH2, 3' idT
For the molecule B23, the binding result in data set [3] is “binds”.

B24: Aptamer 185 (ssRNA)
RNA: B11 RNA with C2G, G8A, C30U, G35C
modifications: 2'-F G, 2'-OMe A/C/U, 5' C6NH2, 3' idT
As for B24, in data set [2], the binding result is “binds”.

B25: Aptamer 95 (ssRNA)
RNA: B11 RNA with C2G, A16C, A24U, G35C
modifications: 2'-F G, 2'-OMe A/C/U, 5' C6NH2, 3' idT
B25: in data set [3], the binding result is reported as “binds”.

B26: Aptamer 184 (ssRNA)
RNA: B11 RNA with C2G, G5C, C32G, G35C
modifications: 2'-F G, 2'-OMe A/C/U, 5' C6NH2, 3' idT
With B26, the binding result in data set [2] is “binds”.

B27: Aptamer 114 (ssRNA)
RNA: CGGUGGGAAAUUUGAGAUGGGUUGCCG
modifications: 2'-F G, 2'-OMe A/C/U, 5' C6NH2, 3' idT
In turn, B27 gave a binding signal in data set [1] above 10 fold worse than Aptamer 8.

B28: Aptamer 106 (ssRNA)
RNA: UGAUGACGAUAGAUUUCGGGUAGUGUGAUCGCAUCU
modifications: 2'-F G, 2'-OMe A/C/U, 5' C6NH2, 3' idT
On to B28, for which the binding result in data set [3] was “binds”.

B29: Aptamer 217 (ssRNA)
RNA: CGCUGGGAAAUGUGAGAUGGGUUGGCG
modifications: 2'-F G, 2'-OMe A/C/U, 5' C6NH2, 3' idT
As to B29, the binding result in data set [1] was “binds”.

B30: Aptamer 100 (ssRNA)
RNA: UGAUGACGGUAGAUUAUGGGAAGUGUGACCGCAUCU
modifications: 2'-F G, 2'-OMe A/C/U, 5' C6NH2, 3' idT
Take B30: the binding signal in data set [3] was > 10 fold better than Aptamer 3.

B31: Aptamer 110 (ssRNA)
RNA: B30 RNA with A16U, U17C
modifications: 2'-F G, 2'-OMe A/C/U, 5' C6NH2, 3' idT
For B31, the binding result in data set [3] was “binds”.

B32: Aptamer 155 (ssRNA)
RNA: CGGUGGGAACCGUGAGAUGGGGUGCCG
modifications: 2'-F G, 2'-OMe A/C/U, 5' C6NH2, 3' idT
Molecule B32 had a binding signal in data set [1] above 10 fold worse than Aptamer 8.

B33: Aptamer 112 (ssRNA)
RNA: CGGUGGGAAAUCUGAGAUGGGUUGCCG
modifications: 2'-F G, 2'-OMe A/C/U, 5' C6NH2, 3' idT
Molecule B33 returned a binding signal in data set [1] above 10 fold worse than Aptamer 8.

B34: Aptamer 38 (ssRNA)
RNA: GAUGACGGUAGAUUACGGGUAGAGUGACCGCAUC
modifications: 2'-F G, 2'-OMe A/C/U, 5' C6NH2, 3' idT
For B34, the binding result in data set [2] (stem-loop) is “binds”.

B35: Aptamer 92 (ssRNA)
RNA: B34 RNA with A2G, U3C, A32G, U33C
modifications: 2'-F G, 2'-OMe A/C/U, 5' C6NH2, 3' idT
Turning to B35, the binding result in data set [2] (stem-loop) was “binds”.

B36: Aptamer 154 (ssRNA)
RNA: CGGUGGGAACUGUGAGAUGGGGUGCCG
modifications: 2'-F G, 2'-OMe A/C/U, 5' C6NH2, 3' idT
Consider B36, for which the binding signal in data set [1] was above 10 fold worse than Aptamer 8.

B37: Aptamer 208 (ssRNA)
RNA: UGCCGACGGUAGAUUACGGGUAGAGUGACCGCGGCU
modifications: 2'-F G, 2'-OMe A/C/U, 5' C6NH2, 3' idT
For B37, in data set [2], the binding result was “binds”.

B38: Aptamer 210 (ssRNA)
RNA: B37 RNA with C3G, G34C
modifications: 2'-F G, 2'-OMe A/C/U, 5' C6NH2, 3' idT
Regarding B38, in data set [2], the binding result is listed as “binds”.

B39: Aptamer 121 (ssRNA)
RNA: CGGUGGGACACCCGAGAUGGGUGGCCG
modifications: 2'-F G, 2'-OMe A/C/U, 5' C6NH2, 3' idT
The molecule B39 yielded a binding signal in data set [1] above 10 fold worse than Aptamer 8.
